# According to US20180291081A1 (GUANGZHOU INSTITUTES OF BIOMEDICINE AND HEALTH CHINESE …, published 2018):
# Biological target: T1, PD-1 molecule (refolded, purified and biotinylated PD-1 of Example 2) (UniProt Q15116 33-150, biotinylated with BirA enzyme (site not stated))
# T1 construct: also called Programmed Death-1
# Experiment: SPR (BIAcore T200), single-cycle kinetics; biotinylated PD-1 captured via streptavidin, PDL-1 variant in solution
# Protocol: The anti-streptavidin antibody (GenScript) was added to the coupling buffer (10 mM sodium acetate buffer, pH 4.77). The antibody was then flowed through a CMS chip previously activated with EDC and NHS to immobilize the antibody on the chip surface. Finally, the unreacted activation surface was blocked with a solution of ethanolamine hydrochloride to complete the coupling process.
# A low concentration of streptavidin is allowed to flow over the surface of the antibody-coated chip, then the biotinylated PD-1 is passed through the detection channel and the other channel is used as a reference channel. Then, 0.05 mM biotin was passed through the chip at a flow rate of 10 μL/min for 2 min to block the remaining binding sites of streptavidin. The single-cycle kinetic analysis method was used to measure its affinity. […] The binding time for each injection was 120 s, and it was disassociated for 600 s after the last injection. The chips were regenerated with 10 mMGly-HCl, pH 1.75 after each round of assays. Kinetic parameters were calculated using BIAcore Evaluation software.
# T1 sequence (Q15116 33-150 limits assumed): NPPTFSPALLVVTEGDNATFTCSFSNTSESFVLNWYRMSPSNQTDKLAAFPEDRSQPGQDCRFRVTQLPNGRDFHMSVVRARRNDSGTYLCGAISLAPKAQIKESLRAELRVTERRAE
Binder,Kd [µM],koff [s⁻¹],kon [M⁻¹ s⁻¹]
high affinity PDL-1 molecule L3C7a (ligand) FTVTVPKDLYVVEYGSNMTIECKFPVEKQLDLAALEVHWFMEDKNIFSFVHGEEDLKVQHSSYRQRARLLKDQLSLGNAALQITDVKLQDAGVYTCLIGYKGADYKRITVKVNAPYNKINQRILVVDPVTSEHELTCQAEGYPKAEVIWTSSDHQVLSGKTTTTNSKREEKLFNVTSTLRINTTTNEIFYCTFRRLDPEENHTAELVIPEL,0.115,0.0139,120000
high affinity PDL-1 molecule L2B8 (ligand) FTVTVPKDLYVVEYGSNMTIECKFPVEKQLDLAALQVHWFMEDKNIVSFVHGEEDLKVQHSSYRQRARLLKDQLSLGNAALQITDVKLQDAGVYRCMISYGGADYKRITVKVNAPYNKINQRILVVDPVTSEHELTCQAEGYPKAEVIWTSSDHQVLSGKTTTTNSKREEKLFNVTSTLRINTTTNEIFYCTFRRLDPEENHTAELVIPEL,11.7,0.15,12800
high affinity PDL-1 molecule L2G10 (ligand) FTVTVPKDLYVVEYGSNMTIECKFPVEKQLDLAALQVHWFMEDKNIYSFVHGEEDLKVQHSSYRQRARLLKDQLSLGNAALQITDVKLQDAGVYRCMISYGGADYKRITVKVNAPYNKINQRILVVDPVTSEHELTCQAEGYPKAEVIWTSSDHQVLSGKTTTTNSKREEKLFNVTSTLRINTTTNEIFYCTFRRLDPEENHTAELVIPEL,4.6,0.178,38700
high affinity PDL-1 molecule L3C7 (ligand) FTVTVPKDLYVVEYGSNMTIECKFPVEKQLDLAALEVHWFMEDKNIIQFVHGEEDLKVQHSSYRQRARLLKDQLSLGNAALQITDVKLQDAGVYTCLIGYKGADYKRITVKVNAPYNKINQRILVVDPVTSEHELTCQAEGYPKAEVIWTSSDHQVLSGKTTTTNSKREEKLFNVTSTLRINTTTNEIFYCTFRRLDPEENHTAELVIPEL,0.75,0.0329,43900
high affinity PDL-1 molecule L2A6 (ligand) FTVTVPKDLYVVEYGSNMTIECKFPVEKQLDLAALQVHWFMEDKNIASFVHGEEDLKVQHSSYRQRARLLKDQLSLGNAALQITDVKLQDAGVYRCMISYGGADYKRITVKVNAPYNKINQRIRVVDPVTSEHELTCQAEGYPKAEVIWTSSDHQVLSGKTTTTNSKREEKLFNVTSTLRINTTTNEIFYCTFRRLDPEENHTAELVIPEL,4.74,0.0458,9670
high affinity PDL-1 molecule L2C4 (ligand) FTVTVPKDLYVVEYGSNMTIECKFPVEKQLDLAALQVHWWMEDKNIVSFVHGEEDLKVQHSSYRQRARLLKDQLSLGNAALQITDVKLQDAGVYRCMISYGGADYKRITVKVNAPYNKINQRILVVDPVTSEHELTCQAEGYPKAEVIWTSSDHQVLSGKTTTTNSKREEKLFNVTSTLRINTTTNEIFYCTFRRLDPEENHTAELVIPEL,11.2,0.124,11000
high affinity PDL-1 molecule L3B3a (ligand) FTVTVPKDLYVVEYGSNMTIECKFPVEKQLDLAALQVFWMMEDKNIVSFVHGEEDLKVQHSSYRQRARLLKDQLSLGNAALQITDVKLQDAGVYTCLIAYKGADYKRITVKVNAPYNKINQRILVVDPVTSEHELTCQAEGYPKAEVIWTSSDHQVLSGKTTTTNSKREEKLFNVTSTLRINTTTNEIFYCTFRRLDPEENHTAELVIPEL,0.557,0.09,162000
high affinity PDL-1 molecule L2F4 (ligand) FTVTVPKDLYVVEYGSNMTIECKFPVEKQLDLAALEVHWFMEDKNIFSFVHGEEDLKVQHSSYRQRARLLKDQLSLGNAALQITDVKLQDAGVYRCMISYGGADYKRITVKVNAPYNKINQRILVVDPVTSEHELTCQAEGYPKAEVIWTSSDHQVLSGKTTTTNSKREEKLFNVTSTLRINTTTNEIFYCTFRRLDPEENHTAELVIPEL,7.54,0.154,20500
high affinity PDL-1 molecule L2H3 (ligand) FTVTVPKDLYVVEYGSNMTIECKFPVEKQLDLAALQVHWFMEDKNILSFVHGEEDLKVQHSSYRQRARLLKDQLSLGNAALQITDVKLQDAGVYRCMISYGGADYKRITVKVNAPYNKINQRILVVDPVTSEHELTCQAEGYPKAEVIWTSSDHQVLSGKTTTTNSKREEKLFNVTSTLRINTTTNEIFYCTFRRLDPEENHTAELVIPEL,8.97,0.153,17100

# Further binders by falling Kd, results first:
Kd [µM],koff [s⁻¹],kon [M⁻¹ s⁻¹],Binder
10.9,0.123,11300,high affinity PDL-1 molecule L2D7 (ligand) FTVTVPKDLYVVEYGSNMTIECKFPVEKQLDLAALEVHWFMEDKNILSFVHGEEDLKVQHSSYRQRARLLKDQLSLGNAALQITDVKLQDAGVYRCMISYGGADYKRITVKVNAPYNKINQRILVVDPVTSEHELTCQAEGYPKAEVIWTSSDHQVLSGKTTTTNSKREEKLFNVTSTLRINTTTNEIFYCTFRRLDPEENHTAELVIPEL
10.3,0.134,13000,high affinity PDL-1 molecule L2B6 (ligand) FTVTVPKDLYVVEYGSNMTIECKFPVEKQLDLAALEVHWFMEDKNIVSFVHGEEDLKVQHSSYRQRARLLKDQLSLGNAALQITDVKLQDAGVYRCMISYGGADYKRITVKVNAPYNKINQRIRVVDPVTSEHELTCQAEGYPKAEVIWTSSDHQVLSGKTTTTNSKREEKLFNVTSTLRINTTTNEIFYCTFRRLDPEENHTAELVIPEL
10.1,0.122,12200,high affinity PDL-1 molecule L2F5 (ligand) FTVTVPKDLYVVEYGSNMTIECKFPVEKQLDLAALEVHWFMEDKNISSFVHGEEDLKVQHSSYRQRARLLKDQLSLGNAALQITDVKLQDAGVYRCMISYGGADYKRITVKVNAPYNKINQRILVVDPVTSEHELTCQAEGYPKAEVIWTSSDHQVLSGKTTTTNSKREEKLFNVTSTLRINTTTNEIFYCTFRRLDPEENHTAELVIPEL
3.44,0.104,30200,high affinity PDL-1 molecule L1F2 (ligand) FTVTVPKDLYVVEYGSNMTIECKFPVEKQLDLAALQVNWLMEDKNIIQFVHGEEDLKVQHSSYRQRARLLKDQLSLGNAALQITDVKLQDAGVYLCLISYGGADYKRITVKVNAPYNKINQRILVVDPVTSEHELTCQAEGYPKAEVIWTSSDHQVLSGKTTTTNSKREEKLFNVTSTLRINTTTNEIFYCTFRRLDPEENHTAELVIPEL
0.964,0.0526,54500,high affinity PDL-1 molecule L3B3d (ligand) WTVTVPKDLYVVEYGSNMTIECKFPVEKQLDLAALQVFWMMEDKNILSFVHGEEDLKVQHSSYRQRARLLKDQLSLGNAALQITDVKLQDAGVYVCLIAYKGADYKRITVKVNAPYNKINQRILVVDPVTSEHELTCQAEGYPKAEVIWTSSDHQVLSGKTTTTNSKREEKLFNVTSTLRINTTTNEIFYCTFRRLDPEENHTAELVIPEL
0.914,0.0439,48000,high affinity PDL-1 molecule L1A4 (ligand) WTVTVPKDLYVVEYGSNMTIECKFPVEKQLDLAALQVFWMMEDKNIIQFVHGEEDLKVQHSSYRQRARLLKDQLSLGNAALQITDVKLQDAGVYTCLISYGGADYKRITVKVNAPYNKINQRILVVDPVTSEHELTCQAEGYPKAEVIWTSSDHQVLSGKTTTTNSKREEKLFNVTSTLRINTTTNEIFYCTFRRLDPEENHTAELVIPEL
0.751,0.0376,50100,high affinity PDL-1 molecule L1C2 (ligand) FTVTVPKDLYVVEYGSNMTIECKFPVEKQLDLAALQVNWFMEDKNIIQFVHGEEDLKVQHSSYRQRARLLKDQLSLGNAALQITDVKLQDAGVYVCLISYGGADYKRITVKVNAPYNKINQRILVVDPVTSEHELTCQAEGYPKAEVIWTSSDHQVLSGKTTTTNSKREEKLFNVTSTLRINTTTNEIFYCTFRRLDPEENHTAELVIPEL
0.666,0.0573,86000,high affinity PDL-1 molecule L3B3b (ligand) FTVTVPKDLYVVEYGSNMTIECKFPVEKQLDLAALQVFWMMEDKNIVSFVHGEEDLKVQHSSYRQRARLLKDQLSLGNAALQITDVKLQDAGVYVCLIAYKGADYKRITVKVNAPYNKINQRILVVDPVTSEHELTCQAEGYPKAEVIWTSSDHQVLSGKTTTTNSKREEKLFNVTSTLRINTTTNEIFYCTFRRLDPEENHTAELVIPEL
0.648,0.044,67800,high affinity PDL-1 molecule L3B3C (ligand) WTVTVPKDLYVVEYGSNMTIECKFPVEKQLDLAALQVFWMMEDKNIVSFVHGEEDLKVQHSSYRQRARLLKDQLSLGNAALQITDVKLQDAGVYVCLIAYKGADYKRITVKVNAPYNKINQRILVVDPVTSEHELTCQAEGYPKAEVIWTSSDHQVLSGKTTTTNSKREEKLFNVTSTLRINTTTNEIFYCTFRRLDPEENHTAELVIPEL
0.499,0.071,142000,high affinity PDL-1 molecule L3B3 (ligand) FTVTVPKDLYVVEYGSNMTIECKFPVEKQLDLAALQVFWMMEDKNIIQFVHGEEDLKVQHSSYRQRARLLKDQLSLGNAALQITDVKLQDAGVYTCLIAYKGADYKRITVKVNAPYNKINQRILVVDPVTSEHELTCQAEGYPKAEVIWTSSDHQVLSGKTTTTNSKREEKLFNVTSTLRINTTTNEIFYCTFRRLDPEENHTAELVIPEL
